The values below come from publication PMC12363175 (2025).

The test concerns the target SARS-CoV-2 PT-RBD (SARS-CoV-2 prototype, UniProt P0DTC2). Description: SPR.

B1: sheep ACE2 ectodomain fused with mFc (Fc fusion)
chain: QSTTEGQAKTFLEKFNHEAEDLSYQSSLASWNYNTNITDENVQKMNEARAKWSAFYEEQSRMARTYSLEEIQNLTLKRQLKALQHSGTSVLSAEKSKRLNTILNKMSTIYSTGKVLDPNTQECLALEPGLDDIMENSRDYNRRLWAWEGWRAEVGKQLRPLYEEYVVLENEMARANNYEDYGDYWRGDYEVTGAGDYDYSRDQLMKDVERTFEEIKPLYEQLHAYVRAKLMDTYPSYISPTGCLPAHLLGDMWGRFWTNLYSLTVPFEHKPSIDVTEKMKNQSWDAERIFKEAEKFFVSIGLPYMTQGFWDNSMLTEPGDGRKVVCHPTAWDLGKGDFRIKMCTKVTMDDFLTAHHEMGHIQYDMAYATQPYLLRNGANEGFHEAVGEIMSLSAATPHYLKALGLLAPDFYEDNETEINFLLKQALTIVGTLPFTYMLEKWRWMVFKGEIPKQQWMEKWWEMKREIVGVVEPLPHDETYCDPACLFHVAEDYSFIRYYTRTIYQFQFHEALCKTAKHEGALFKCDISNSTEAGQRLLQMLRLGKSEPWTLALENIVGIKTMDVKPLLNYFEPLFTWLKEQNRNSFVGWSTEWTPYSDQSIKVRISLKSALGENAYEWNDNEMYLFRSSVAYAMRKYFLKERNETIPFGEENVWVSDKKPRISFKFFVTSPNNVSDIIPRTEVENAIRLCRDRINDAFQLDDNSLEFLGIQPTLRPPYEPP
In turn, B1 yielded a Kd of 171 nM.

B2: wild Bactrian camel ACE2 ectodomain fused with mFc (Fc fusion)
chain: QSTTEELAKTFLEEFNHEAEDLSYQSSLASWNYNTNITDENVQKMNDARAKWSTFYEEKSKTAKTYPLEEIQNVTLKRQLQALQQSGASALSADKSKRLTTVLSTMSTIYSSGEVCDPNNPQECLVLEPGLDDIMENSKDYNQRLWAWEGWRAEVGKQLRPLYEEYVVLKNEMARANNYEDYGDYWRGDYEVMWAGDYDYSRDQLMGDVEHTFAEIKPLYEHLHAYVRAKLMDVYPSHISPTGCLPAHLLGDMWGRFWTNLYSLTVPFGQKPNIDVTEAMENQSWDAKRIFKEAEKFFVSIGLPNMTQGFWDNSMLTEPGDGRKVVCHPTAWDLGKGDFRIKMCTKVTMDDFLTAHHEMGHIQYDMAYAIQPFLLRNGANEGFHEAVGEIMSLSAATPHYLKALGLLPADFYEDSETEINFLLKQALTIVGTLPFTYMLEKWRWMVFKGEIPKEQWMQKWWEMKREIVGVVEPLPHDETYCDPACLFHVAEDYSFIRYYTRTIYQFQFHEALCQIAKHEGPLYKCDISNSTEAGQKLLQMLSLGKSEPWTLALEGLVGVKTMDVKPLLNYFEPLLTWLKDQNRNSFVGWSTDWTPYTDQSIKVRISLKSALGDKAYEWNDNEMYLFQSSLAYAMRKYFLKVQNQTILFGVEDVWVSDLKPRISFSFFVTSPKNVSDIIPRTEVEEAIRMSRSRINDAFRLDDNSLEFLGIQPTLGPPYEPP
For the molecule B2, the Kd was found to be 993 nM.
